The labels stand for the following.
B1: ATGL (PNPLA2, patatin-like phospholipase domain-containing protein 2), human, full length / perilipin-1, mouse (mPlin1) (parent)
chain 1: MFPREKTWNISFAGCGFLGVYYVGVASCLREHAPFLVANATHIYGASAGALTATALVTGVCLGEAGAKFIEVSKEARKRFLGPLHPSFNLVKIIRSFLLKVLPADSHEHASGRLGISLTRVSDGENVIISHFNSKDELIQANVCSGFIPVYCGLIPPSLQGVRYVDGGISDNLPLYELKNTITVSPFSGESDICPQDSSTNIHELRVTNTSIQFNLRNLYRLSKALFPPEPLVLREMCKQGYRDGLRFLQRNGLLNRPNPLLALPPARPHGPEDKDQAVESAQAEDYSQLPGEDHILEHLPARLNEALLEACVEPTDLLTTLSNMLPVRLATAMMVPYTLPLESALSFTIRLLEWLPDVPEDIRWMKEQTGSICQYLVMRAKRKLGRHLPSRLPEQVELRRVQSLPSVPLSCAAYREALPGWMRNNLSLGDALAKWEECQRQLLLGLFCTNVAFPPEALRMRAPADPAPAPADPASPQHQLAGPAPLLSTPAPEARPVIGALGL
chain 2: MSMNKGPTLLDGDLPEQENVLQRVLQLPVVSGTCECFQKTYNSTKEAHPLVASVCNAYEKGVQGASNLAAWSMEPVVRRLSTQFTAANELACRGLDHLEEKIPALQYPPEKIASELKGTISTRLRSARNSISVPIASTSDKVLGATLAGCELALGMAKETAEYAANTRVGRLASGGADLALGSIEKVVEFLLPPDKESAPSSGRQRTQKAPKAKPSLVRRVSTLANTLSRHTMQTTAWALKQGHSLAMWIPGVAPLSSLAQWGASAAMQVVSRRQSEVRVPWLHNLAASQDESHDDQTDTEGEETDDEEEEEESEAEENVLREVTALPNPRGLLGGVVHTVQNTLRNTISAVTWAPAAVLGTVGRILHLTPAQAVSSTKGRAMSLSDALKGVTDNVVDTVVHYVPLPRLSLMEPESEFRDIDNPSAEAERKGSGARPASPESTPRPGQPRGSLRSVRGLSAPSCPGLDDKTEASARPGFLAMPREKPARRVSDSFFRPSVMEPILGRAQYSQLRKKS
B2: ATGL (PNPLA2, patatin-like phospholipase domain-containing protein 2), human, full length / perilipin-5, mouse (mPlin5) (parent)
chain 1: B1 chain 1
chain 2: MDQRGEDTTLAPHSRMSGDQTAQDPGSSLGELDQQNVVNRVVALPLVKATCTAVSSAYNSAKDRHPLLGSACRLAEHCVCSVTTCALDHAQPLLEHLQPQLATVNDLACRGLDKLEEKLPFLQQPSDMVVTSAKDTVAKSVTGMVDLAQRGRRWSGELRRSMSQAMDMVLGKSEKLVDRFLPMTEAELAVLAAEAEGPEVGTVEEQRQQQGYFVRLGSLSARLRHLAYEHSLGKLRQSKHRTQEMLAQLQETLELIQHMQRGASPSPTFHPPKTQELWGSWSPCLENGRSHSEVELETLALSRSLTLELQNAVDALAGCVRGLPPSAQAKVAEVQRSVDALQATFADAHCLGDVAPTALAEGRGSVARAHACVDEFLDLVLRAMPLPWLVGPFAPILVEQSEPLINLATCVDEVVGDPDPRWAHMDWPAQKRAWEAESADPGGQEAEPPRGQGKHTMMPELDF

The variants in the first experiment derive from B1. In words: LUMIER: Protein A-ATGL variant and firefly luciferase-partner co-expressed in HEK293T, lysates immunoprecipitated on IgG-coated plates, co-precipitated partner measured as luciferase luminescence. The conditions noted are these: with perilipin-1, mouse (mPlin1), transient co-transfection, IgG-coated LUMITRAC plates, 2 h at 4 °C, three PBS washes, Bright-Glo luciferase reagent, triplicates per assay, two …, parent: 0.26, not graded, scale: log2 fold change of co-immunoprecipitated luminescence relative to wild-type ATGL within each experiment.
chain 1 P103K: the screen value is -1.36.

Consider chain 1 A434L, for which the screen value is 0.0211.

Take chain 1 R329E: the screen value is -0.367.

For the variant chain 1 R113L, the screen value came to 0.128.

For the variant chain 1 R113K, the screen value is -0.0594.

For chain 1 G189E, the screen value is -1.

Take chain 1 F35E: the screen value was -0.17.

On to chain 1 F35A, for which the screen value was -0.185.

Regarding chain 1 N180L, the screen value came out at 0.0119.

As for chain 1 G66A, the screen value was -0.406.

As to chain 1 G66L, the screen value was -0.803.

Regarding chain 1 L159A, the screen value was -0.915.

With chain 1 S87E, the screen value was -0.527.

Turning to chain 1 S87A, the screen value amounted to 0.0206.

Regarding chain 1 K92L, the screen value was 0.107.

Turning to chain 1 Y415A, the screen value was -0.0219.

Turning to chain 1 G153A, the screen value was -0.209.

Take chain 1 G153K: the screen value was -0.674.

As to chain 1 K275A, the screen value was -0.55.

Regarding chain 1 L62A, the screen value was 0.475.

As to chain 1 L62K, the screen value turned out to be 0.457.

Take chain 1 V328A: the screen value is -0.205.

As to chain 1 P86K, the screen value was -0.8.

For the variant chain 1 L261E, the screen value was -0.624.

In the case of chain 1 R351L, the screen value was -0.000717.

Take chain 1 A453E: the screen value worked out at 0.218.

As for chain 1 S106K, the screen value is -0.529.

Turning to chain 1 G16K, the screen value was determined as 0.265.

For chain 1 G59L, the screen value was -0.00134.

On to chain 1 R95L, for which the screen value is 0.0463.

As for chain 1 R95K, the screen value was -0.788.

chain 1 E314A: the screen value is -0.247.

Consider chain 1 F348E, for which the screen value is 0.112.

Turning to chain 1 I70A, the screen value was -0.501.

Regarding chain 1 I70K, the screen value was -0.495.

With chain 1 A104E, the screen value is -1.07.

With chain 1 R163K, the screen value is -0.504.

As to chain 1 E368A, the screen value was -0.0883.

Regarding chain 1 Q140K, the screen value was -0.355.

On to chain 1 Q140A, for which the screen value is -0.00146.

On to chain 1 L102K, for which the screen value was -1.19.

For the variant chain 1 P156K, the screen value was -0.552.

Regarding chain 1 S158A, the screen value was -0.232.

As to chain 1 S158E, the screen value was -0.452.

With chain 1 Q396A, the screen value was 0.313.

As for chain 1 T41A, the screen value is -0.0364.

Regarding chain 1 N39E, the screen value is -0.0832.

Take chain 1 L178A: the screen value was -0.664.

Turning to chain 1 P258L, the screen value was -0.67.

For the variant chain 1 E125L, the screen value is -0.268.

With chain 1 V127L, the screen value was -0.304.

With chain 1 H109E, the screen value is -0.442.

Staying with this experiment, now noted: with perilipin-1, mouse (mPlin1), transient co-transfection, IgG-coated LUMITRAC plates, 2 h at 4 °C, three PBS washes, Bright-Glo luciferase reagent, triplicates per assay, two …, parent: -0.37, not graded, scale: log2 fold change of co-immunoprecipitated luminescence relative to wild-type ATGL within each experiment.
Take chain 1 P103K: the screen value is -0.898.

Consider chain 1 A434L, for which the screen value stood at 0.452.

As for chain 1 R329E, the screen value is -0.537.

Regarding chain 1 R113L, the screen value is 0.163.

Turning to chain 1 R113K, the screen value was found to be 0.272.

chain 1 G189E: the screen value was -1.43.

As for chain 1 F35E, the screen value is -0.197.

As to chain 1 F35A, the screen value is -0.158.

Regarding chain 1 N180L, the screen value was -0.626.

As for chain 1 G66A, the screen value was found to be 0.198.

Regarding chain 1 G66L, the screen value was -0.433.

Consider chain 1 L159A, for which the screen value came out at 0.395.

chain 1 S87E: the screen value was -0.625.

For chain 1 S87A, the screen value is -0.536.

Take chain 1 K92L: the screen value was found to be 0.166.

For chain 1 Y415A, the screen value is -0.00379.

Turning to chain 1 G153A, the screen value is -0.215.

As to chain 1 G153K, the screen value was -0.772.

For the variant chain 1 K275A, the screen value is -0.709.

With chain 1 L62A, the screen value was -0.248.

For the variant chain 1 L62K, the screen value came out at 0.284.

On to chain 1 V328A, for which the screen value was -0.0406.

As for chain 1 P86K, the screen value is -0.498.

Consider chain 1 L261E, for which the screen value was -1.14.

With chain 1 R351L, the screen value was -0.298.

Take chain 1 A453E: the screen value stood at 0.0778.

Consider chain 1 S106K, for which the screen value is -0.667.

On to chain 1 G16K, for which the screen value turned out to be 0.718.

With chain 1 G59L, the screen value was -0.613.

Consider chain 1 R95L, for which the screen value came out at 0.332.

As for chain 1 R95K, the screen value is -0.635.

For chain 1 E314A, the screen value turned out to be 0.211.

As to chain 1 F348E, the screen value is -0.626.

On to chain 1 I70A, for which the screen value was -0.781.

In the case of chain 1 I70K, the screen value was -0.759.

With chain 1 A104E, the screen value is -0.823.

As for chain 1 R163K, the screen value is -0.582.

Take chain 1 E368A: the screen value was -0.602.

Consider chain 1 Q140K, for which the screen value came to 0.00731.

As for chain 1 Q140A, the screen value is -0.191.

As to chain 1 L102K, the screen value was -0.807.

Take chain 1 P156K: the screen value was -0.726.

On to chain 1 S158A, for which the screen value stood at 0.188.

Turning to chain 1 S158E, the screen value is -0.376.

Consider chain 1 Q396A, for which the screen value was -0.0639.

With chain 1 T41A, the screen value was -0.45.

As for chain 1 N39E, the screen value was -0.558.

As for chain 1 P258L, the screen value was -1.35.

chain 1 E125L: the screen value is -0.225.

On to chain 1 V127L, for which the screen value is -0.288.

Turning to chain 1 H109E, the screen value is -0.386.

The same experiment, now with this note: with perilipin-1, mouse (mPlin1), transient co-transfection, IgG-coated LUMITRAC plates, 2 h at 4 °C, three PBS washes, Bright-Glo luciferase reagent, triplicates per assay, two …, parent: -0.37, not graded, value at the no-binding floor (a bound), scale: log2 fold change of co-immunoprecipitated luminescence relative to wild-type ATGL within each experiment.
For the variant chain 1 L178A, the screen value was -1.6.

The variants in the next experiment derive from B2. Described as above. The conditions noted are these: with perilipin-5, mouse (mPlin5), transient co-transfection, IgG-coated LUMITRAC plates, 2 h at 4 °C, three PBS washes, Bright-Glo luciferase reagent, triplicates per assay, two …, parent: 0.15, not graded, scale: log2 fold change of co-immunoprecipitated luminescence relative to wild-type ATGL within each experiment.
For the variant chain 1 L178A, the screen value was -0.0602.

chain 1 K92L: the screen value was 0.0605.

For chain 1 P156K, the screen value was -0.669.

As for chain 1 E314A, the screen value was 0.0215.

Consider chain 1 F35A, for which the screen value is -0.563.

Still in this experiment, the particulars now being: with perilipin-5, mouse (mPlin5), transient co-transfection, IgG-coated LUMITRAC plates, 2 h at 4 °C, three PBS washes, Bright-Glo luciferase reagent, triplicates per assay, two …, parent: 0.46, not graded, scale: log2 fold change of co-immunoprecipitated luminescence relative to wild-type ATGL within each experiment.
On to chain 1 L178A, for which the screen value was -0.257.

For chain 1 K92L, the screen value was determined as 0.185.

In the case of chain 1 P156K, the screen value is -1.08.

chain 1 E314A: the screen value was found to be 0.421.

For the variant chain 1 F35A, the screen value was -0.0452.

(Values after PMC10958042.)
